Test results: US20090093372A1

Biological target: human E-cadherin on human embryonic stem cells (hESCs; CyT203) (human) (UniProt P12830)
Assay: cell-based or functional assay

Chain of UniProt P12830 (P12830 155-882 limits assumed): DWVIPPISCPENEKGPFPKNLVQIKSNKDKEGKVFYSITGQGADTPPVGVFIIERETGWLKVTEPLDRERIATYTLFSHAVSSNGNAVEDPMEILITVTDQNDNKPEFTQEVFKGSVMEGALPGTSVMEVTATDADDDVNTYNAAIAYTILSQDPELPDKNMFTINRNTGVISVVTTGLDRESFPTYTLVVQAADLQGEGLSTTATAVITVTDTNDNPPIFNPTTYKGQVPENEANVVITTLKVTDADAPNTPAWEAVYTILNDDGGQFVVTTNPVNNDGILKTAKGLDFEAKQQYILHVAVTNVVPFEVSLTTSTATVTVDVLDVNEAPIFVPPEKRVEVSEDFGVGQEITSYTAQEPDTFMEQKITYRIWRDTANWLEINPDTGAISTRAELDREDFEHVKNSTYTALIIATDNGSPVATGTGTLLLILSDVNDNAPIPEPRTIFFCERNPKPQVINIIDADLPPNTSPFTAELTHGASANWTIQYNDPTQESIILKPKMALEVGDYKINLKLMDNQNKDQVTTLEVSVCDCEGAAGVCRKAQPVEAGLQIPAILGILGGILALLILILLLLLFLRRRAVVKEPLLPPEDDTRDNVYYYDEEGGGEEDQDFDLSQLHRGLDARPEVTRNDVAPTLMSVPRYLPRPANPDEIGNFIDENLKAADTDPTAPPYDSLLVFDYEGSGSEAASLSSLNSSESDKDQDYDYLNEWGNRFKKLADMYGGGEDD

Substance: mouse anti-human E-cadherin antibody (Zymed Cat. No. 13-1700)
- percentage of CXCR4 positive cells (flow cytometry after 3 days of differentiation to definitive endoderm; antibody at 5 µg/mL on day 1): 93%
